Test results taken from patent EP3766894A1.
Positions of bridges follow the written chain, without caps; N, C: chain ends. Non-standard residues stand in square brackets, D forms with d. Primed or numbered codes have the meaning given here. Chains are numbered I, II in the order given. No end group written: not given here. *: point of attachment. Palmitoyl = CCCCCCCCCCCCCCCC(=O)*; hArg = N=C(N)NCCCC[C@H](N)C(=O)O; Nle = CCCC[C@H](N)C(=O)O; PEG2″ = not defined here

Assays:
[1] = target: human Kallikrein-related peptidase 7 (hKLK7) (human), P49862; experiment: activity assay
Sequence of human Kallikrein-related peptidase 7 (hKLK7) (human), P49862 (P49862 30-253 limits assumed): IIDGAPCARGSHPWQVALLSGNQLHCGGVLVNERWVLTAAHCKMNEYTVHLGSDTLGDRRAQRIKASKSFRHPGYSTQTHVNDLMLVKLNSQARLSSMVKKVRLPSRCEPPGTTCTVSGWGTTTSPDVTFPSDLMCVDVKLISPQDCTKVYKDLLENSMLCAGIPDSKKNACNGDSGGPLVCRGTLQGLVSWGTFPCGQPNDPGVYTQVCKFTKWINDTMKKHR

[2] = target: human serum albumin (HSA) (human), P02768; experiment: fluorescence polarization

Ki [1]: 7.4 nM | Kd [2]: 164 nM
B1: KLK7 inhibitor 278-tag (final KLK7 inhibitor) (peptide)
peptide 1: PCLY[Nle]A[hArg]CGKG
peptide 2: {fluorescein-PEG2″}-EYEK(Palmitoyl)EYE
modifications: bridge I:2-I:8; not fully specified (bridges); also: chain 2 C-terminus joined via PEG2 to Lys side chain of GKG linker
